Data: the Human Domainome abundance scans (Beltran et al. 2025)

B1: Max-interacting protein 1, residues 70 to 120; numbered along this chain, P50539 (parent)
chain: STHNELEKNRRAHLRLCLERLKVLIPLGPDCTRHTTLGLLNKAKAHIKKLE
B2: Cyclin-F, residues 28 to 80; numbered along this chain, P41002 (parent)
chain: RNLTILSLPEDVLFHILKWLSVEDILAVRAVHSQLKDLVDNHASVWACASFQE

Variants of: B1
Assay: abundance fitness (aPCA) (normalised: wild type 0, dead -1); higher = more abundant; growth selection in yeast, the domain comes from the species named
Conditions: Homo sapiens

Abundance fitness of substitutions, site by site:
L6: E -0.574 | G 0.203 | I -0.189 | A -0.171 | R 0.172 | N -0.329 | S 0.096 | H 0.519 | F -0.228 | C -0.123 | P 0.36 | V -0.005 | T -0.025 | W -0.566 | Y -0.277 | K -0.086 | Q 0.18 | M -0.247 | D -0.066
E7: H -0.3 | N 0.176 | L -0.109 | S 0.06 | D -0.184 | A -0.263 | G -0.099 | F -0.273 | K 0.061 | C -0.267 | R -0.161 | Q -0.169 | M -0.173 | T -0.468 | I -0.479
T2: I -0.24 | K 0.002 | S -0.414 | Q 0.161 | C -0.415 | R -0.631 | N 0.128 | D -0.209 | Y -0.088 | F -0.586 | V -0.663 | L -0.519 | P -0.35 | W -0.836 | H -0.1 | M -0.63 | G -0.69 | A -0.303
E5: C -0.991 | S -0.205 | Q -0.193 | Y -0.069 | F -0.514 | D -0.021 | W -0.435 | G -0.244 | I -0.185 | T -0.006 | K -0.232 | P -0.15 | R -0.27 | N 0.282 | M 0.119
S1: E -0.48 | F -0.095 | L -0.59 | G -0.21 | D -0.475 | H -0.285 | Y -0.444 | C -0.216 | N -0.158 | W -0.916 | A -0.6 | T -0.577 | R -0.573 | M -0.797
N4: F -0.713 | D -0.134 | I 0.278 | M -0.289 | C -0.33 | E -0.142 | H -0.381 | T 0.135 | L -0.48 | R -0.255 | K -0.168 | Y -0.547 | P -0.276 | A -0.258 | V -0.404 | G -0.223 | Q 0.041
H3: N -0.162 | G 0.197 | Y -0.078 | P 0.018 | M 0.152 | E -0.047 | A -0.099 | W -0.549 | S 0.065 | Q -0.023 | K 0.178 | F 0.168 | V -0.053 | C 0.021 | D 0.023

Variants of: B2
Assay: as above
Conditions: Homo sapiens

Abundance fitness: each site, then its substitutions
E53: D -0.178 | R -0.068 | F -0.582 | H -0.878 | K 0.081 | P -0.375 | G -0.069 | A -0.151 | M -0.39 | T -0.349 | I -0.533 | L -0.543 | Q -0.051 | C -0.527 | V -0.538 | S -0.467
A43: T -0.416 | E -0.343 | P -0.039 | C -0.006 | L -0.605 | W -0.264 | I -0.577 | R -0.273 | N -0.303 | V -0.616 | G -0.409
N41: L -0.306 | Y -0.569 | D -0.435 | S 0.052 | Q 0.128 | M -0.272 | F -0.692 | E -0.039 | R 0.241 | H -0.035 | K 0.231 | A -0.071 | P -0.59 | W -0.733 | V -0.484 | G -0.033 | T -0.131 | I -0.455
W46: G -0.065 | D -0.043 | K -0.289 | Y -0.469 | P -0.386 | N -0.128 | M -0.27 | R -0.058 | C -0.4
